Test: yeast display, Sf9 membrane polyspecificity reagent, FACS + sequencing; frameworks hold sequencing errors
Summary of the method: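 Nanobodies from a synthetic yeast display library (Saccharomyces cerevisiae BJ5465), induced 36–48 hours with galactose, were stained 1 hour at 4 °C with 10% biotinylated, detergent-solubilized Sf9 membrane reagent, enriched on streptavidin microbeads, then FACS-sorted. Anti-HA (expression) and streptavidin (reagent binding) fluorescence set low and high (top ~1%) gates. Polyreactivity labels come from the gate of origin. Genes were colony-PCR amplified, MiSeq 2 × 250 sequenced and filtered by CDR length.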

| Sequence | polyreactivity (PSR sort gate) |
| --- | --- |
| QVQLVESGGGLVQAGGSLRLSCASSGIILYAYAKGWYRQAPGKERELVAAISRSGGRTYYADSVKGRFTISRDKAKNTVYLQMNSLKPEDTAVYYCATVTRYPDGHRFDYWGQGTQVTVSS | high polyreactivity |
| QVQLEESGGGLVQAGGSLSLSCAASGSIFSNYAMGWYRQAPGKERELVAAIRISGGSTKYADSVKGRFTISRDNAKNTVYLQMNSLKPEDTAVYYCAAANSKRHRRYNYWGQGTQVTVSS | high polyreactivity |
| QVQLVESGGGLVQAGGSLRLICAASGRIIYCNGMGWYRQAPGKERELVAAISSGGSTYYADSVKGRFTISRDNAKNTVYLQMNCLKPEDTAVYYCAADIDYESDRYDYWGQGTQVTVSS | low polyreactivity |
| QVQLVESGGGLVQAGGSLRLSCAASGFTLRYYAMGWYRQAPGKERELVADISWSGGRTYYADSVKGRFTISRDNAKNTVYLQMNSLKPEDTAVYYCAAVRYYAHVYKSVGYDYWGQGTQVTVSS | high polyreactivity |
| QVQLVESGGGLVQAGGSLRLSCAASGRIFFYYAKGWSRQAPGKARELVAAINRGGRTYYADSVKGRFTISRDNAKNTVYLQMNSLKPEDTADYYCAADCHTAKSNFDYWGQGTQVTVSS | low polyreactivity |
| QVQLVESGGGLVQAGGSLRLSCAASGRTITRYTMGWYRQAPGKERELVAAIRYSGGSTYYADSVKGRFTISRDTAKNTIYLQMNSLKPEDTAVYYCAARSYYYGFLYSYDYWGQGTQVTVSS | low polyreactivity |
| QVHLVESGGGLVQAGGSLRLSCAASGITLGYYVMGWYRQAPGKERELVAAISSSGGRTYYADSVKGRFTISRDNAKNTVYLQMNSLKPEDTAVYYCSADLGRGIYDYWGQGTQVTVSS | low polyreactivity |
| QVQLVESGGGLVQAGGSLRLSCAASGFTFSFYAMGWYRQAPGKERELVASISDSDGITFYADSVKGSFTISRDNAKNTVYLPMKSLKPEDTAVYYCAADVAIAIPFSYDYWGQGTQVTVSS | low polyreactivity |
| QVQLVESGGGLVQAGGSLRLSSAASGITFPWYAMGWSRQAPGKERELVAAISRSGGSTYADSVKGRFTISRDNAKNTVYLQMNSLKPEDTAVYYCAAGTYSGSRFDYWGQGTQVTVSS | high polyreactivity |
| QVQLVESGGGLVQAGGSLRLSCAASGIIFRLYGMGWYIQAPGKEREFVATITWRGGRTNYADSVKGRFTISRDNAKNTVYLQMNSLKPEDTAVYYCAAGSAPSYWGGWYYERDYWGQGTQVTVSS | low polyreactivity |
| QVQLVESGGGLVQAGGSLRLSSAASGFTSSRNAMGWYRQAPGKERELVATISSGGDTYYADSVKGRFTISRDNAKNTVYLQMNSLKPEDTAVYYCATDRAERTGYTRYVKTYNYWGQGTQVTVSS | low polyreactivity |
| QVQLVESGGGLVQAGGSLRLSSAASGSTFVQNAMGWYRQAPGKERELVAAISRGGTSTYYADSVKGRFTISRDNAKNTVYLQMNSLKPEDTAVYYCAAYTSYLGYPYDYWGQGTQVTVSS | high polyreactivity |
| QVQLVESGGGLVQAGGSLRLSCAASGRIFPYNTMGLYRQAPGKERELVAAISRRGGSTYYADSVKGRFTISRDNAKNTVYLQMNSLKPEDTAVYYCNAVKPRDYGGLAYDYWGQGTQVTVSS | high polyreactivity |
| QVQLVESGAGLVQAGGSLRLSCAASGFIFARYAMGWSRQAPGKERELVAAITRGGGSTYYADSVKGRFTISRDTAKNTVYLQMNSLKPEDTAVYYCAAENGALVTYGYWGQGTQVTVSS | high polyreactivity |
| QVQLVESGGGLVQAGGSLRLSCAASGSTFSANAMGWYRQAPGKERELVAGISRSGGRTYYADSVKGRFTISRDNEMNTVYLQMNSLKPEDTAVYYCNARRRGAGGYDYWGQGTQVTVSS | high polyreactivity |
| QVQHVESVGGLVQAGGSLRLSCAASGYIFDYYDIGWYRQAPGKERELVAAINWSGGNTYYADSVKGRFTISRDNAKNTVYLQMKSLKPEDTAVYYCNADPTWSLEYGYWGQGTQVTVSS | low polyreactivity |
| QVQLVESGGGLVQAGGSLRLSCAASGFTFDGYAMGWYRQAPGKERELVAAIRRSGASTYYADSVKGRFTISRDNAKNTVYLHMNSLKPEDTAVYYCNATRNYEPRYSSFTLRGYYWGQGTQVTVSS | low polyreactivity |
| QVQLVESGGGLVQAGGSLRLSCAASGSILNNYAMGWYRQAPGKERELVAAISSSGGTNYADSVKGRFTISRDNAKYTVYLQMNSLKPEDTAVYYCNADVLDGGYDYWGQGTQVTVSS | low polyreactivity |
| QVQLVESGGGLVQAGGSLRLSCAASGRTLIVNTMGWYRQAPGKEREFVAAIFSGASTYYAYSVKGRFTISRDNAKNTVYLQMNSLKPEDTAVYYCAVRNWHLIKYLHGYTRYGYWGQCTQVTVSS | low polyreactivity |
| QVQLVESVGGLVQAGGSLRLSCAASGSNFSKKTMGGSRQAHGKERELVAAITTRGSSTYYADSVKGRFTISRDNAKNTVYLQMNSLKPVDTAVYYCNAPYRVTGGRYRWYDYWGQGTQVTVSS | high polyreactivity |
| QVQLVESGGGLVQAGGSLRLSCAASGSIFQAYAMGWYRQAPGKERELVASISSGGGTNYADSVKGRFTISRDNAKNTVYLQMNSLKPEDTAVYYCAADVYLVKYDYWGQGTQVTVSS | low polyreactivity |
| PVQLVETGGGLVQAGGSLRLSCAASGRTFYRYAMGWYRQAPGKERELVAAITRRVDSTSYADSVKGRFTISRDNAKNTVYLQMNSLKPEDTAVYYCATLVQGSVYGVYGGGYWGQGTQVTVSS | low polyreactivity |

| Sequence | polyreactivity (PSR sort gate) |
| --- | --- |
| QVHLVESWGGLVQAGGSLRLICAASGSTFYANAMGWYRQAPGKERQLVAAITRSRRSTYYADSVKGRFTISRDNAKNTVYLQMNSLKRVDTAVYYFSARRVRDRVRYDYCGQGTQVTVSS | high polyreactivity |
| QVQLVESGGGLVQAGGSLRLSCAASGSIFVRYAMGWYRQAPGKERELVAAFTSSAGSTYYADSVKGRFTISRDNAKNTVYLQMNSLKPEDTAVYYCAAVRYYPSKFYYWGQGTQVTVSS | high polyreactivity |
| QVQLVESGGGLVQAGGSLRLSCAASGFTFYAYAMGWYRQAPGKERELVAAITWSGGRTYYADSVKGRFTISRDNAKNTVYLQMNSLKPEDTAVYYCAKRYWGQARYHTGHDYWGQGTQVTVSS | high polyreactivity |
| QVQLVESGGGLDQAGGRLRLSCAASGFTFNYNAMGWYRQATGKERELVAAISRSGGRTYYADSVKGRFTISRDNAKNTVYLQMNSLKPEDTAVYYCAADSGTNGYDYWGQGTQVTVSS | high polyreactivity |
| QVQLVESGGGLVQAGGSLRLSCAASGTFYWNVMGWYRQAPGKEREFVASITLSGTSTYYADSVKVRFTISRDNAKNTVYLQMNSLKPEDTAVYYCAVAARWPAPVPHYYYWGQGTQVTVSS | low polyreactivity |
| QVQLVESGGGLVQAGGSLRLSCAASGFTFDHYAMGWCRQAPGKERELVAAITSSGGRTYYADSVKGRFTISRDNAKNTVYLQMNSLKPEDTAVYYCNARPVYYSGYGYWGQGTQVTVSS | high polyreactivity |
| QVQLVESGGGLVQAGGTLRISCAASGSTFLFYAMGWYRQAPGKERELVAAISSSGTSTYYADSVKGRFTISRDNAKNTVYLQMNSLKPEDTACYYCARRGRSLRWKYDYWGQGTQVTVSS | low polyreactivity |
| QVQLVESGVGLVQAGGSLRLSCAASGLTYYGYVMGWYRQAPGKERELVAAISQSGGTTYYADSVNGRFTISRDNAKNTFYLHMNSLTPEDTAVYYCAADHFYILIFLYGKLTLDYWGQGTQVTVSS | high polyreactivity |
| QVHLQESAGGLVQAGGSLRLTCSASGYISFDASMGWYRQAPGKERELAASIPKGSSTNYADSVKGRFTIRDNATITVYLQMNSLQPEDTAVCYCAVTYPYWGDYTYWGQGTQVTVSC | low polyreactivity |
| QVQLVESGGGLVQAGGSIRLSCAASGSTFYIYAMGWYRQAPGQERELVATISWSGGSTYYADSVKGRFTISRDNAKNTVYLQMNSLKPEDTAVYYCAVRPGFGRSLWYGYWGQGTQVTVSS | high polyreactivity |
| QVQLVESAGGLVQAGGSLRLSCAASGFTFIGYVMGWYRQAPGKERELVAAITSGGDTNYADSVKGRFTISRDNAKNTVYLQMNSLKPEDTAVYYCNKGAYWVEYAYIEGELDYWGQGTQVTVSS | low polyreactivity |
| QVQLVESGGGLVQAGGSLRLSCAASGSTFTLYAMGWYRQAPGKERELVAAISGIGDSTYYADSVKGRFTISRDNAKNTVYFQMNSLKPEDTAVYYCAADGEYRYVWEYESWGQGTQVTVSS | low polyreactivity |
| QVQLVESGGGLVQAGASLRLSCAASGSIFYYDMGWDRQAPGKERELVAAITWSGGSTYYADSVKGRFTISRDNAKNTVYLQMNSLKPEDTAVYYCAAIFGYGSTWWRWGKDDYWGQGTQVTVSS | high polyreactivity |
| QVQLVESGGALVQAGGSLGLICAASGSIFRWYAMGWYRQAPGKERELVASINSSGDRTYYADSVKGRFTISRDKAKKTVFLQMNSLNPEDTAVYNCAAQISVKVDFWGQGTQVTVSS | high polyreactivity |
| QVQLVESGGGLVQARGSLRLSCAASGRTFVVYDMGWYRPAPGKERALVAAITWSGGSTYYADSVKGRFTSSRDTAKNTVYLQMHSLKPEDTAVYYCAAGYYYFWTYAYWGQGTQVTVSS | low polyreactivity |
| QVQLVESGGGLVQAGGSLRLSCAASGIIFDDYAMGWYRQAPGKERELVAVISSSGGNTYYADSVKGRFTISRDNAKNSVYLQMNSLKPEDTAVYYCAATYYYKSIYWFEYLGQGTQVTVSS | low polyreactivity |
| QVQLVESGGGLVQAGGSLRLSCAASGFIFYHYAMGWYRQAPGKARELVAAISGRGGSTYYADSVKGRFTISRDNAKNTVYLQMNSLKPEDTAVYYCATDRQRADYYWGQGTQVTVSS | high polyreactivity |
| QVHLVESGGGLVQAGGSLRLSCAASGRTFGYYAMGWYRQAPGKERELVATISGRAGRTYYADSVKGRFTISRDNAKNTVYLQMNSLKPEDTAVYYCATRSLQKYYWIANSYGYWGHGTQVTVSS | high polyreactivity |
| QVQLVESGGGLVQAGGSLSLSCAASGITFGLYAMGWYRQATGKERELVAAITSGDRTYYADSVKGRFTISRDNAKNTVYLQMISLTPEDTAVNYCNAEAWWVYYYYGTYLAGSYYWGQGTQVTVSS | high polyreactivity |
| QVQLVESGGGLVQAGCSLRLSCAASGSIFAAYPMGWYRQAPGKERELVAAISRSCGSTYYADSVKGRFTISRDNAKNTVYLQMNSLKPEDTAVYYCAADTYGYRHDNYDYWGQGTQVTVSS | low polyreactivity |
| QVQLVESGGGLVQAGGSLRLSCAASGNTFRYYAMGWYRQAPGKERELVAAISGDGGSTYYADSVKGRFTISRDNAKNTVYLQMNSLKPEDTAVYYCNKAGRRRYRESDYWGQGTQVTVSS | high polyreactivity |

— the nanobody polyreactivity screen of Harvey et al. (2022)
